Data reported in US20130012451.

Target: CD44, P16070
Sequence (P16070 other isoform, or with tags, fused parts or gaps): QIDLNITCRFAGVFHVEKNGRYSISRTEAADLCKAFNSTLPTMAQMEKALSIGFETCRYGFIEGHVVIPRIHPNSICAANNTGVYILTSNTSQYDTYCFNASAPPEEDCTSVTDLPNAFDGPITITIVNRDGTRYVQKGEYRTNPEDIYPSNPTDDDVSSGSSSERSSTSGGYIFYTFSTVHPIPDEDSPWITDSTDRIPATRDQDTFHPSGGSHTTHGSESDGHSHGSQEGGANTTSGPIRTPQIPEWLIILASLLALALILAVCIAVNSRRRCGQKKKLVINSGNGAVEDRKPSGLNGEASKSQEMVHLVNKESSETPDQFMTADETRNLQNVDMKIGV

B1: Matrix Metalloproteinase-9 (MMP-9), wild type (protein)
chain: APRQRQSTLVLFPGDLRTNLTDRQLAEEYLYRYGYTRVAEMRGESKSLGPALLLLQKQLSLPETGELDSATLKAMRTPRCGVPDLGRFQTFEGDLKWHHHNITYWIQNYSEDLPRAVIDDAFARAFALWSAVTPLTFTRVYSRDADIVIQFGVAEHGDGYPFDGKDGLLAHAFPPGPGIQGDAHFDDDELWSLGKGVVVPTRFGNADGAACHFPFIFEGRSYSACTTDGRSDGLPWCSTTANYDTDDRFGFCPSERLYTQDGNADGKPCQFPFIFQGQSYSACTTDGRSDGYRWCATTANYDRDKLFGFCPTRADSTVMGGNSAGELCVFPFTFLGKEYSTCTSEGRGDGRLWCATTSNFDSDKKWGFCPDQGYSLFLVAAHEFGHALGLDHSSVPEALMYPMYRFTEGPPLHKDDVNGIRHLYGPRPEPEPRPPTTTTPQPTAPPTVCPTGPPTVHPSERPTAGPTGPPSAGPTGPPTAGPSTATTVPLSPVDDACNVNIFDAIAEIGNQLYLFKDGKYWRFSEGRGSRPQGPFLIADKWPALPRKLDSVFEERLSKKLFFFSGRQVWVYTGASVLGPRRLDKLGLGADVAQVTGALRSGRGKMLLFSGRRLWRFDVKAQMVDPRSASEVDRMFPGVPLDTHDVFQYREKAYFCQDRFYWRVSSRSELNQVDQVGYVTYDILQCPED
- phosphorylation of EGFR, western blotting: expression of MMP-9 in wild type COS-1 cells resulted in increased phosphorylation of EGFR as compared to vector control. This activation of EGFR did not occurred in CD44-silenced COS-1 cells transfected with MMP-9 cDNA
